Values joined by “and” are separate entries in the source; they are usually repeats but may differ in a detail not shown here. Identical values can stand only once. Bridges are numbered along the chain shown (N, C = ends). Where no end group is shown, it is not given here.
What was measured:
[1] = molecular target: ADO-D206N, N-terminally His-tagged and biotinylated (human) (UniProt Q96SZ5); test: SPR; biotinylated ADO or ADO mutant immobilised on a Biotin CAP chip (~2500-3000 RU), substrate peptide injected; Biacore T200, 4 °C; 20 mM HEPES pH 7.5, 500 mM NaCl, 10 mM DTT, 0.1% tween-20; 50 µL/minute; multi-cycle or single-cycle mode not given; each cell is one of three independent measurements
[2] = molecular target: 2-aminoethanethiol dioxygenase (ADO), full-length human, N-terminally His-tagged and biotinylated (pQE80L-Navi-ADO) (human) (UniProt Q96SZ5); test: as above
[3] = molecular target: 2-aminoethanethiol dioxygenase (ADO), wild type, biotinylated (pQE80L-Navi-ADO) (human); test: SPR; single-cycle kinetics (SCK), 1:1 binding model; biotinylated ADO or variant immobilised on a Biotin CAP chip, peptide injected at 25.6, 64, 160, 400, 1000 nM; 4 °C; 20 mM HEPES pH 7.5, 500 mM NaCl, 10 mM DTT, 0.1% (v/v) tween-20; 50 μL/minute
[4] = molecular target: T1, 2-aminoethanethiol dioxygenase (ADO), full-length human, N-terminally His-tagged and biotinylated … (human, UniProt Q96SZ5 1-270, biotin (biotinylated during expression, 0.2 mM biotin added)); test: SPR; single-cycle kinetics (1:1 binding model); biotinylated ADO immobilised on a Biotin CAP chip (~2500-3000 RU), cyclic peptide injected; Biacore T200, 4 °C; 20 mM HEPES pH 7.5, 500 mM NaCl, 10 mM DTT, 0.1% tween-20; 50 µL/minute; each cell is one of three independent measurements; settings: both partners purified
T1 construct: 2-aminoethanethiol dioxygenase (ADO), human, UniProt Q96SZ5, full length; Immobilised through its biotin on a Biotin CAP chip for SPR; also called wild type ADO; Biotinylated-ADO; source: E. coli Rosetta2(DE3), purified (Ni-NTA, SEC); not shown: biotinylation tag (from the vector pQE80L-Navi), N-terminal, kept
T1 sequence (looked up): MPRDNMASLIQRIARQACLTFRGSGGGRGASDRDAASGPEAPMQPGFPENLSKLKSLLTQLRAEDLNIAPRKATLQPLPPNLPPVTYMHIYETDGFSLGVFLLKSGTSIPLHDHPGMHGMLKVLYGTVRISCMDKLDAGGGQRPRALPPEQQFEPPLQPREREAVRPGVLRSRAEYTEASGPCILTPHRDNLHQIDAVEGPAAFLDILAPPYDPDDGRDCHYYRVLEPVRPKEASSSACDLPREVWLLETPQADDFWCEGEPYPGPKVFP

[5] = molecular target: ADO with a change in Y212 (ADO-Y212) (human) (UniProt Q96SZ5); test: SPR; biotinylated ADO (wild type or mutant) immobilised on a Biotin CAP chip, substrate peptides injected; 4 °C; 20 mM HEPES pH 7.5, 500 mM NaCl, 10 mM DTT, 0.1% tween-20; multi-cycle or single-cycle mode not given
[6] = molecular target: ADO with a change in F101 (ADO-F101) (human) (UniProt Q96SZ5); test: as above
ADO-I109A = molecular target: T2, ADO-I109A (human, UniProt Q96SZ5 1-270, I109A, biotin); test: as above; settings: both partners purified
T2 construct: 2-aminoethanethiol dioxygenase (ADO), human, UniProt Q96SZ5, full length; Made by site-directed mutagenesis of the SPR construct; source: E. coli Rosetta2(DE3), purified (Ni-NTA, SEC); not shown: biotinylation tag (from the vector pQE80L-Navi), N-terminal, kept
T2 sequence (looked up): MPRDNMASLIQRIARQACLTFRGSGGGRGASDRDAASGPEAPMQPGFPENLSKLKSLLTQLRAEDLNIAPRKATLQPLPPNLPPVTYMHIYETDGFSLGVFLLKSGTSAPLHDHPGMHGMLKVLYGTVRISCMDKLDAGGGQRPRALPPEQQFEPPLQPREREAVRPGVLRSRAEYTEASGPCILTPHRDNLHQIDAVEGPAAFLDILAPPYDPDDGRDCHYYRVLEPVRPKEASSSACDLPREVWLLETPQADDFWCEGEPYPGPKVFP

**Q.** With “RGS5(2-15), synthetic peptide corresponding to the methionine excised N-terminus of RGS5, residues 2 to 15 (from UniProt O15539 2-15)” as the molecule, how does the Kd [1] read?
**A.** 149 nM and 155 nM and 152 nM

**Q.** And the Kd [2]?
**A.** 609 nM and 637 nM and 675 nM

**Q.** How did the Kd [1] turn out when “IL32(2-15), synthetic peptide corresponding to the methionine excised N-terminus of IL32, residues 2-15 (from UniProt P24001 2-15)” was run?
**A.** 68.4 nM and 73.3 nM and 67.5 nM

**Q.** And the Kd [2]?
**A.** 372 nM and 449 nM and 573 nM

B1: CP6-L8K-Cys (peptide)
peptide: {CH2CO}-YIVKTFWK(Cys)GSHRQC
modifications: thioether N-14
notes: the substitution L8K is to be applied, Cys on the sidechain amine of K8; Branched peptide: the Cys is not in the main chain; source: synthetic peptide
**Q.** For B1, which Kd [3] is on record?
**A.** 13 nM

**Q.** And the Kd [4]?
**A.** 11 nM and 13.1 nM and 13.7 nM

B2: CP6-L8K-Ser (peptide)
peptide: {CH2CO}-YIVKTFWK(Ser)GSHRQC
modifications: thioether N-14
notes: the substitution L8K is to be applied, Ser on the sidechain amine of K8; Branched peptide: the Ser is not in the main chain; also called CP-L8K-Ser; source: synthetic peptide
**Q.** Which Kd [3] does the source give for B2 here?
**A.** 21 nM

**Q.** And the Kd [4]?
**A.** 17.2 nM and 20.6 nM and 26.8 nM

B3: RGS5_(2-15), synthetic peptide corresponding to the methionine excised N-terminus of RGS5, residues 2 to 15 (peptide)
peptide: CKGLAALPHSCLER
**Q.** For B3, which fold increase in KD relative to wild type ADO [5] is on record?
**A.** < 113 fold

**Q.** And the fold increase in KD relative to wild type ADO [6]?
**A.** < 80 fold

B4: IL32_(2-15), synthetic peptide corresponding to the methionine excised N-terminus of IL32, residues 2-15 (peptide)
peptide: CFPKVLSDDMKKLK
**Q.** What does the source list for B4?
**A.** fold increase in KD relative to wild type ADO [5]: < 113 fold; fold increase in KD relative to wild type ADO [6]: < 80 fold

B5: RGS5_(2-15), synthetic peptide corresponding to the methionine excised N-terminus of RGS5, residues 2 to 15 (peptide, UniProt O15539 2-15, looked up)
peptide: CKGLAALPHSCLER
notes: RGS5, human, residues 2 to 15 (methionine excised N-terminus); peptide synthesis is in the supplementary methods; source: synthetic peptide
**Q.** B5 was tested. Which “fold increase in KD relative to wild type ADO” value (ADO-I109A) did it give?
**A.** 2 fold

B6: IL32_(2-15), synthetic peptide corresponding to the methionine excised N-terminus of IL32, residues 2-15 (peptide, UniProt P24001 2-15, looked up)
peptide: CFPKVLSDDMKKLK
notes: interleukin 32 (IL32), residues 2-15 (methionine excised N-terminus); peptide synthesis is in the supplementary methods; source: synthetic peptide
**Q.** Which “fold increase in KD relative to wild type ADO” value (ADO-I109A) does the source give for B6 here?
**A.** 35 fold

— PMC12098869, “An mRNA-display derived cyclic peptide scaffold reveals the substrate binding interactions of an N-terminal cysteine oxidase” (Nature Communications, 2025)
